Measured values: publication PMC5543139

Biological target: glucagon receptor on CHO-GCGR cells (human) (UniProt P47871)
Assay: flow cytometry on live cells
Details: D-PBS pH 7.4, 5 mM MgCl2, 4.5 g/L glucose, 0.1 mg/mL yeast tRNA, 1 mg/L BSA; 4 C, 1 h (45 min in Results for Kd)

Sequence of glucagon receptor on CHO-GCGR cells (human) (P47871 26-477): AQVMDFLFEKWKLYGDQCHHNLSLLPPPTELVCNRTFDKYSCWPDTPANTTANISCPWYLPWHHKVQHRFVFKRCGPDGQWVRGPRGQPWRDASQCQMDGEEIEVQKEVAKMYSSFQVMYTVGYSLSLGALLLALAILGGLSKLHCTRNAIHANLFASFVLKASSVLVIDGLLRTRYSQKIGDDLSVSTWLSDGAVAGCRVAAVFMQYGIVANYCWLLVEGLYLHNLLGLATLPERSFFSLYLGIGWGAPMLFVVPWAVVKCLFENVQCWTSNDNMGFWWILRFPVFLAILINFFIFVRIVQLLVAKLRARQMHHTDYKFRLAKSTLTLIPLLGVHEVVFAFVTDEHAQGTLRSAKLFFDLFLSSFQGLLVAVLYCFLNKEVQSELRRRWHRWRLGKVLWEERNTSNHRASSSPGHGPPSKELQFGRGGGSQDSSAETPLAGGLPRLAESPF

Question: How did the Kd turn out when “ATCCAGAGTGACGCAGCAGATAAGTAGGTATCCGTTTGAAAAACTTTTCTGACCGTCCGACTATGGACACGGTGGCTTAGT [GR-3]” was run?
Answer: 52.7 nM
